{
  "source": "patent US20200206304A1",
  "about": "“METHODS AND COMPOSITIONS FOR EFFICIENT DELIVERY THROUGH MULTIPLE BIO BARRIERS” (Cedars-Sinai Medical Center, priority 2017, published 2020)",
  "key": {"brain parenchyma": {"system": "brain parenchyma", "experimental": "To determine how nanoconjugate-associated fluorescence relates to the anatomy of the vasculature, the distance of each analyzed ROI was manually measured from the nearest blood vessel wall (using line tool in FIJI). For tumor bearing mice, 5 images per tumor tissue and 5 per brain tissue were analyzed for each mouse. Intensity values were then plotted against the location of the blood vessel wall and summarized in scatterplots (e.g., FIG. 14B).\nDrug concentrations are listed with regard to total nanoconjugate content systemically injected. […] Referring to FIG. 14B, fluorescence measurements were obtained from 10 μm^2-sized regions of interest (ROI) that were randomly overlaid on regions devoid of vasculature shown as yellow squares on photograph 1 of FIG. 14A. Intensity measurements and positions were then obtained for each ROI and plotted against the location of the nearest blood vessel wall. FIG. 14C is set of charts: chart 1—Cortex; chart 2—Midbrain and chart 3 Hippocampus, illustrating average nanoconjugate fluorescence in the brain parenchyma measured following injections at four different drug concentrations. In this figure, fluorescence is shown as relative fluorescence, which is the measured nanoconjugate fluorescence after subtraction of autofluorescence imaged from PBS injected animals using similar acquisition settings.\nFIG. 14B explores this relationship in a plot from all of the measurements (for each condition: 4 mice, 3-4 sections with 20 random measurements each). All fluorescence intensity measurements were conducted with 10 μm^2-sized regions of interest placed outside of tomato-lectin stained blood vessels (ROI as in Photograph 1 of FIG. 14A); the positions of these ROIs were then measured against the location of the nearest blood vessel wall to produce the scatterplot in FIG. 14B.\nThe resulting data were used as a metric to examine how well the mini nanodrug was able to travel from the vessels into the surrounding parenchyma and encounter brain cells. […] Nanoconjugate diffused fluorescence intensity vs. ‘distance from vasculature’ measurements in brain parenchyma of mice injected with nanoconjugates at a dose of 0.274 μmol/Kg. Fluorescence measurements were obtained from […] regions of interest (ROI) that were randomly overlaid on regions devoid of vasculature (shown by yellow squares in FIG. 22A). Intensity measurements and positions were then obtained for each ROI and plotted against the location of the nearest blood vessel wall."}, "neurons and astroglia": {"system": "neurons and astroglia", "conditions": "mouse, in vivo", "experimental": "Neuronal and glial counterstaining: In FIGS. 27A-27C, brain tissue from drug-injected mice was counterstained to determine if our nanoconjugates are taken up by neurons or glia. Cryosections ([…]) were air-dried for 10 min, fixed with 2% paraformaldehyde for 5 min, and then rinsed three times with PBS. […] The antibodies anti-Neun (Abcam, Cambridge, Mass., USA; AB104225) and anti-GFAP (Neuromics, Edina, Minn., USA; C1122102) were then diluted 1:500 in PBS-T and tissue sections incubated simultaneously with antibody solutions overnight at 4° C. in a humid chamber. Tissue sections were then washed five times with PBS-T and incubated in appropriate secondary antibody diluted 1:250 in PBS-T, for 2-4 h. After five washes in PBS at room temperature, sections were mounted between coverslips in Fluoromount-G with DAPI.\nTo this end, after systemic injection of our D-conjugates we counterstained brain tissue sections of hippocampus and cortex with anti-Neun to label neurons, and with anti-GFAP to label astroglia (FIGS. 27A-27C) and inspected the stained sections for red fluorescent particulates. […] Positive neurons and glia cells were counted after systemic injection of conjugates containing D1, D3, AC189 peptides, and of a control PBS (FIGS. 27A-27C)."}, "[1]": {"system": "blood-brain barrier (BBB)", "conditions": "dose 8×", "experimental": "AD-Mouse models: 6-8 month old […] (B6.Cg-Tg (APPswe/PS1ΔE9) 85Dbo/J hemizygous) mice were obtained from Jackson Laboratories. Mouse maintenance and experimental procedures followed the guidelines established by the Cedars Sinai Institutional Animal Care and Use Committee (IACUC Protocol #7416). Three to four mice of each sex were used for each experiment. Nanoconjugates were dissolved freshly in PBS (pH 7.4) prior to each experiment and injected intravenously (i.v.) into the lateral tail vein. […] Mice were anesthetized with isoflurane beforehand and their tails were briefly warmed to facilitate injections. The drug injection volume was kept constant at 150 μL. After each injection, mice were promptly returned to their cages. Brains were collected and preserved in OTC for immunostaining.\nThe brains were harvested and a 14 μm thick slices which were fixed and stained with DAPI to envision the nuclei\nA comparison with normal brain was beneficial for understanding of the development of Alzheimer's disease."}, "Aβ plaque": {"biological_target": "T1, Aβ plaque (Homo sapiens, UniProt P05067)", "T1 construct": "tissue Jackson Laboratories; host or cells: brain of 6-8 month old APPswe/PS1ΔE9 transgenic mice, plaques labelled in vivo after iv injection and counterstained on sections", "T1 sequence (P05067 672-713 limits assumed)": "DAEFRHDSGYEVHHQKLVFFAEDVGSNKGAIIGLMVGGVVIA", "assay": "Percentage of total plaques labeled by mini nanodrugs in AD mice", "type": "in vivo,  (B6.Cg-Tg (APPswe/PS1ΔE9) 85Dbo/J hemizygous) mice", "conditions": "injected dose 8X (0.55 μmol/Kg)", "experimental": "Slides were air dries and fixed using freshly diluted 2% PFA for 5 minutes. The PFA was washed 3 timed with PBS, and brains were covered with 70% EtOH for 5 minutes before washing with dH2O for 2 minutes. 1× Amylo-Glo (Biosenses, #TR-300-AG 100×, diluted with PBS) was then added for 10 minutes. The slides were then washed with PBS (5 minutes) and dH2O (15 seconds) and mounted (Fluoromount-G, No DAPI, Invitrogen), and stored at 4° C. prior to imaging.\nBrains were collected and preserved in OTC for immunostaining."}, "[2]": {"conditions": "sagittal sinus, 0.068 μmol/kg"}, "[3]": {"system": "LRP-1 transcytosis pathway", "conditions": "70-fold molar excess of P/LLL (40%)"}, "[4]": {"conditions": "comparison, Israel et al., 2019; cited from earlier work"}},
  "note": "Like-named read-outs stand apart in the source and are kept apart here.",
  "data": [
    {"substance": "PMLA/LLL/AP2/rhodamine [P/LLL/AP2]", "values": [
      {"measurement": "fluorescence intensity decrease (slope), linear regression vs distance from vessel", "setting": "brain parenchyma; 0.274 μmol/kg, 120 min", "value": "−0.272±0.07"},
      {"measurement": "γ-intercept of linear regression, fluorescence vs distance", "setting": "brain parenchyma; 0.274 μmol/kg, 120 min", "value": "17.49±0.8"},
      {"measurement": "γ-intercept of linear regression, fluorescence vs distance", "setting": "brain parenchyma; 0.068 mol/kg, 120 min", "value": "6.342±0.34"},
      {"measurement": "cortex Y intercepts of fluorescence vs distance curves (exponential fits)", "setting": "brain parenchyma; cortex, 0.274 μmol/Kg", "value": 14.7},
      {"measurement": "cell association in GFAP and NEUN staining", "setting": "neurons and astroglia", "value": "no cell association"},
      {"measurement": "fluorescence intensity in AD brain", "setting": "[1]", "value": 10, "unit": "units"},
      {"measurement": "Percentage of total plaques labeled by the reagents", "setting": "Aβ plaque", "value": 1.23, "unit": "%"},
      {"measurement": "optical half-life (optically measured serum clearance)", "setting": "[2]", "value": 1.22, "unit": "h"},
      {"measurement": "competition by unlabeled P/LLL (40%)", "setting": "[3]", "value": "did not exhibit competition"},
      {"measurement": "half-life in blood", "setting": "[4]", "value": 1.28, "unit": "h"}
    ]}
  ]
}
